From the supplement of paper PMC5998384

Columns and labels:
[1] = tested on: HeLa Kyoto; assay: solubility change mitosis vs G1/S (difference of NP-40 vs SDS log2 ratios) (log2 ratio difference); higher = more soluble in mitosis
[2] = tested on: HeLa Kyoto; assay: solubility in G1/S (NP-40 vs SDS abundance) (log2 ratio); higher = more soluble; details: cell cycle stage: G1/S
[3] = tested on: HeLa Kyoto; assay: melting temperature (median over replicates), in situ; higher = more thermally stable
[4] = tested on: HeLa Kyoto; assay: thermal stability score vs G1/S (z-score of summed log2 fold changes over temperatures); higher = more thermally stable than in G1/S
[5] = cell cycle stage: early G1 (4.5 h after nocodazole release)
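Throughout, for melting temperature (median over replicates), in situ: HeLa Kyoto cells synchronized by double thymidine or nocodazole block, proteins quantified by TMT10plex mass spectrometry, three independent biological replicates.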
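Throughout, for solubility change mitosis vs G1/S (difference of NP-40 vs SDS log2 ratios): synchronized HeLa Kyoto cells (double thymidine block for G1/S, nocodazole release for mitosis), protein amounts in NP-40 versus SDS lysates quantified by mass spectrometry, three biological replicates.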
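Throughout, for solubility in G1/S (NP-40 vs SDS abundance): HeLa Kyoto cells arrested at G1/S by double thymidine block, proteins quantified by TMT10plex mass spectrometry in mild NP-40 versus SDS extracts, three biological replicates.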
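Throughout, for thermal stability score vs G1/S (z-score of summed log2 fold changes over temperatures): synchronized HeLa Kyoto cells, proteins quantified by TMT10plex mass spectrometry, three biological replicates, mitosis taken 0.5 h after nocodazole release, G1/S directly after double thymidine block.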

| Sequence | solubility change mitosis (log2) [1] | solubility in G1/S (log2) [2] | melting temperature ([3]; cell cycle stage: G1/S) [°C] | melting temperature ([3]; cell cycle stage: mitosis) [°C] | thermal stability score [4, 5] | thermal stability score ([4]; cell cycle stage: mitosis) |
| --- | --- | --- | --- | --- | --- | --- |
| MEKARRGGDGVPRGPVLHIVVVGFHHKKGCQVEFSYPPLIPGDGHDSHTLPEEWKYLPFLALPDGAHNYQEDTVFFHLPPRNGNGATVFGISCYRQIEAKALKVRQADITRETVQKSVCVLSKLPLYGLLQAKLQLITHAYFEEKDFSQISILKELYEHMNSSLGGASLEGSQVYLGLSPRDLVLHFRHKVLILFKLILLEKKVLFYISPVNKLVGALMTVLSLFPGMIEHGLSDCSQYRPRKSMSEDGGLQESNPCADDFVSASTADVSHTNLGTIRKVMAGNHGEDAAMKTEEPLFQVEDSSKGQEPNDTNQYLKPPSRPSPDSSESDWETLDPSVLEDPNLKEREQLGSDQTNLFPKDSVPSESLPITVQPQANTGQVVLIPGLISGLEEDQYGMPLAIFTKGYLCLPYMALQQHHLLSDVTVRGFVAGATNILFRQQKHLSDAIVEVEEALIQIHDPELRKLLNPTTADLRFADYLVRHVTENRDDVFLDGTGWEGGDEWIRAQFAVYIHALLAATLQLDNEKILSDYGTTFVTAWKNTHNYRVWNSNKHPALAEINPNHPFQGQYSVSDMKLRFSHSVQNSERGKKIGNVMVTTSRNVVQTGKAVGQSVGGAFSSAKTAMSSWLSTFTTSTSQSLTEPPDEKP [AVL9] | -0.155 | 0.0785 | 54.3 | 54.1 | 0.365 | 0.676 |
| MATALALRSLYRARPSLRCPPVELPWAPRRGHRLSPADDELYQRTRISLLQREAAQAMYIDSYNSRGFMINGNRVLGPCALLPHSVVQWNVGSHQDITEDSFSLFWLLEPRIEIVVVGTGDRTERLQSQVLQAMRQRGIAVEVQDTPNACATFNFLCHEGRVTGAALIPPPGGTSLTSLGQAAQ [NDUFAF3] | -0.0203 | 0.117 | 53.4 | 53.5 | -0.2 | -2.08 |
| MAQTLQMEIPNFGNSILECLNEQRLQGLYCDVSVVVKGHAFKAHRAVLAASSSYFRDLFNNSRSAVVELPAAVQPQSFQQILSFCYTGRLSMNVGDQFLLMYTAGFLQIQEIMEKGTEFFLKVSSPSCDSQGLHAEEAPSSEPQSPVAQTSGWPACSTPLPLVSRVKTEQQESDSVQCMPVAKRLWDSGQKEAGGGGNGSRKMAKFSTPDLAANRPHQPPPPQQAPVVAAAQPAVAAGAGQPAGGVAAAGGVVSGPSTSERTSPGTSSAYTSDSPGSYHNEEDEEEDGGEEGMDEQYRQICNMYTMYSMMNVGQTAEKVEALPEQVAPESRNRIRVRQDLASLPAELINQIGNRCHPKLYDEGDPSEKLELVTGTNVYITRAQLMNCHVSAGTRHKVLLRRLLASFFDRNTLANSCGTGIRSSTNDPRRKPLDSRVLHAVKYYCQNFAPNFKESEMNAIAADMCTNARRVVRKSWMPKVKVLKAEDDAYTTFISETGKIEPDMMGVEHGFETASHEGEAGPSAEALQ [NACC1] | -0.176 | 0.142 | 47.6 | 49.4 | 3.55 | 6.42 |
| MESEQLFHRGYYRNSYNSITSASSDEELLDGAGVIMDFQTSEDDNLLDGDTAVGTHYTMTNGGSINSSTHLLDLLDEPIPGVGTYDDFHTIDWVREKCKDRERHRRINSKKKESAWEMTKSLYDAWSGWLVVTLTGLASGALAGLIDIAADWMTDLKEGICLSALWYNHEQCCWGSNETTFEERDKCPQWKTWAELIIGQAEGPGSYIMNYIMYIFWALSFAFLAVSLVKVFAPYACGSGIPEIKTILSGFIIRGYLGKWTLMIKTITLVLAVASGLSLGKEGPLVHVACCCGNIFSYLFPKYSTNEAKKREVLSAASAAGVSVAFGAPIGGVLFSLEEVSYYFPLKTLWRSFFAALVAAFVLRSINPFGNSRLVLFYVEYHTPWYLFELFPFILLGVFGGLWGAFFIRANIAWCRRRKSTKFGKYPVLEVIIVAAITAVIAFPNPYTRLNTSELIKELFTDCGPLESSSLCDYRNDMNASKIVDDIPDRPAGIGVYSAIWQLCLALIFKIIMTVFTFGIKVPSGLFIPSMAIGAIAGRIVGIAVEQLAYYHHDWFIFKEWCEVGADCITPGLYAMVGAAACLGGVTRMTVSLVVIVFELTGGLEYIVPLMAAVMTSKWVGDAFGREGIYEAHIRLNGYPFLDAKEEFTHTTLAADVMRPRRNDPPLAVLTQDNMTVDDIENMINETSYNGFPVIMSKESQRLVGFALRRDLTIAIESARKKQEGIVGSSRVCFAQHTPSLPAESPRPLKLRSILDMSPFTVTDHTPMEIVVDIFRKLGLRQCLVTHNGRLLGIITKKDILRHMAQTANQDPASIMFN [CLCN3] | -0.0871 | -0.354 | 54.9 | 54.9 | -0.456 | -0.317 |
| MKMKLFQTICRQLRSSKFSVESAALVAFSTSSYSCGRKKKVNPYEEVDQEKYSNLVQSVLSSRGVAQTPGSVEEDALLCGPVSKHKLPNQGEDRRVPQNWFPIFNPERSDKPNASDPSVPLKIPLQRNVIPSVTRVLQQTMTKQQVFLLERWKQRMILELGEDGFKEYTSNVFLQGKRFHEALESILSPQETLKERDENLLKSGYIESVQHILKDVSGVRALESAVQHETLNYIGLLDCVAEYQGKLCVIDWKTSEKPKPFIQSTFDNPLQVVAYMGAMNHDTNYSFQVQCGLIVVAYKDGSPAHPHFMDAELCSQYWTKWLLRLEEYTEKKKNQNIQKPEYSE [MGME1] | 0.0664 | 0.384 | 52.9 | 53.5 | -0.736 | -1.05 |
| MVLLKEYRVILPVSVDEYQVGQLYSVAEASKNETGGGEGVEVLVNEPYEKDGEKGQYTHKIYHLQSKVPTFVRMLAPEGALNIHEKAWNAYPYCRTVITNEYMKEDFLIKIETWHKPDLGTQENVHKLEPEAWKHVEAVYIDIADRSQVLSKDYKAEEDPAKFKSIKTGRGPLGPNWKQELVNQKDCPYMCAYKLVTVKFKWWGLQNKVENFIHKQERRLFTNFHRQLFCWLDKWVDLTMDDIRRMEEETKRQLDEMRQKDPVKGMTADD [PITPNA] | -0.0595 | 0.15 | 54.9 | 55.5 | -1.26 | -1.48 |
